Target: Chicken Best1 residues 1–405 (GgBest1) (chicken)
Assay: crystal structure; GgBest1–Fab complex, hanging-drop vapour diffusion; P2_1 form in CYMAL-6 or CYMAL-6-NG, 0–60 mM NaCl, 50 mM sodium acetate pH 4.0, 5% PEG 4000, 20% glycerol; C2 form in DM, 120 mM NaCl, 50 mM Tris pH 8.5, 8.5% PEG 4000, 20% glycerol; sample supplemented with 50 mM GABA

stoichiometry N: 5
Substance: Chicken Best1 residues 1–405 (GgBest1) (domain or fragment)

From article PMC4784663
